Results as given in the RNAGym collection of RNA variant scans (doi:10.1093/nar/gkz1192).

B1: CPEB3 Ribozyme (parent)
chain: UAACAGGGGGCCACAGCAGAAGCGUUCACGUCGCAGCCCCUGUCAGAUUCUGGUGAAUCUGCGAAUUCUGCUGUAUAUCUC

Variants of: B1
Experiment: self-cleavage, relative activity (ratio to wild type); higher = more cleavage; in vitro, sequencing
Summary of the method: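 Barcoded CPEB3 ribozyme mutants, produced by rounds of error-prone PCR, self-cleaved while being transcribed with T7 RNA polymerase for 5 hours at 37°C and during a subsequent 15 min DNase I step before EDTA was added. Sequencing of template-switched cDNA on Illumina gave cleaved and total reads, and DNA sequencing assigned barcodes to variants. Each variant's relative activity is its cleaved/total read fraction divided by the unmutated ribozyme's fraction, averaged across three batches. A variant needed a minimum of 5 reads.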

Variant	self-cleavage
A20C A65G	0.42
G19U U43A	0.29
G19U U43C	0.1
A20C U78C	0.4
G19U A45U	0.2
G19U A45G	0.08
G19U A45C	0.22
A20C G24A	0.21
A20C G24C	0.1
A20C A56C	0.22
A20C A56G	0.27
A20G A35U	0.34
A20G A35C	0.65
A20G A35G	1.25
G19U U74C	0.56
G19U U25G	0.2
G19U U25C	0.08
G19U U25A	0.19
A20C C62U	0.12
A20C U51A	0.32
G19U U51A	0.18
G19U U51C	0.22
G19U G42A	0.18
G19U A77U	0.12

Variant	self-cleavage
A20C U43A	0.35
A20C U43C	0.28
G19U A65U	0.09
G19U A65G	0.26
G19U A64U	0.15
A20C C34U	0.18
A20G A45U	0.3
A20G A45G	0.61
A20G A45C	0.24
G19U U78C	0.32
A20G A21U	0.26
A20G A21G	0.37
A20G A21C	0.32
G19U A35U	0.15
G19U A35G	0.63
G19U C81U	0.34
G19U G73A	0.51
G19U G73U	0.56
A20G C27A	0.16
A20G C27U	0.47
A20C A57G	0.09
A20G C23U	0.38
A20G A77C	0.79
A20G A77U	0.83

Variant	self-cleavage
A20G A77G	0.91
A20C A21G	0.49
A20C A21U	0.2
A20C C44U	0.22
A20G C29G	0.39
A20G C29U	0.36
A20C U67C	0.33
A20C A64U	0.17
A20C A64G	0.07
G19U U76A	0.18
A20G A65G	0.32
A20G A65C	0.13
A20G A65U	0.29
G19U U80A	0.19
G19U U80C	0.26
A20C U69A	0.34
A20C U69C	0.18
G19U A57G	0.48
G19U A57C	0.19
G19U G63U	0.28
A20G A28U	0.58
A20G A28G	0.44
A20G A28C	0.52
A20G A57C	0.26

Variant	self-cleavage
A20G A57G	0.7
A20G A57U	0.53
G19U C37A	0.31
G19U C37U	0.38
A20C U60A	0.43
A20C U60C	0.17
G19U U67C	0.13
G19U U67A	0.13
G19U U58C	0.39
G19U U58G	0.12
G19U U58A	0.04
G19U U49C	0.15
G19U U49A	0.08
A20C C23A	0.09
G19U U41C	0.22
G19U U41A	0.22
A20G A75G	0.81
A20G A75U	0.71
G19U C32G	0.19
A20C	0.3
A20G	0.89
G19U C44A	0.43
G19U C44U	0.18
A20C U49C	0.17

Variant	self-cleavage
A20C U49A	0.16
G19U G36C	0.19
G19U G36A	0.18
A20C U48C	0.28
A20C A35U	0.17
A20C A35G	0.88
G19U C50A	0.15
G19U C50U	0.38
G19U U60C	0.28
G19U U60A	0.45
G19U U31C	0.2
A20C U26A	0.21
A20C U26C	0.34
A20C U25A	0.31
A20C U25C	0.28
G19U A47U	0.5
G19U A47G	0.22
G19U A28U	0.08
G19U A28G	0.14
A20C A77G	0.11
A20C A77U	0.35
G19U U69A	0.27
G19U U69C	0.09
G19U U48C	0.2

Variant	self-cleavage
G19U U48A	0.2
G19U U72G	0.4
G19U U72A	0.32
G19U U72C	0.4
A20C C39G	0.07
A20C U74C	0.46
A20C U72C	0.3
A20C U72G	0.09
A20C U72A	0.33
A20C A28G	0.24
A20C A45C	0.35
A20C A45U	0.2
A20C A45G	0.33
A20C U41C	0.29
A20C U58C	0.43
G19U A56G	0.5
G19U A56U	0.14
A20G A64C	0.53
A20G A64U	0.31
A20G A64G	0.65
A20G C32G	0.12
A20G C32A	0.27
A20G C32U	0.22
A20C U80A	0.51

Variant	self-cleavage
A20C U80C	0.54
A20C G30U	0.05
A20G C34A	0.11
A20C C27A	0.37
A20G A56G	0.66
A20G A56U	0.47
A20C A47U	0.47
A20C A47G	0.45
A20C C29U	0.12
A20G A47C	0.44
A20G A47G	0.75
A20G A47U	0.42
A20G C37A	0.41
A20C C37U	0.13
A20C U31C	0.14
G19U C40A	0.21
A20C U54C	0.2
A20C C32A	0.25
A20C U66C	0.23
A20C U66G	0.45
G19U A75U	0.28
G19U G61C	0.13
G19U G61A	0.3
